Measured values from article PMC10285643 (iScience, 2023).

Target: extracellular domain of Toll-like receptor 4 (TLR4) (UniProt O00206 24-631)
Experiment: ITC

extracellular domain of Toll-like receptor 4 (TLR4), sequence (O00206 24-631): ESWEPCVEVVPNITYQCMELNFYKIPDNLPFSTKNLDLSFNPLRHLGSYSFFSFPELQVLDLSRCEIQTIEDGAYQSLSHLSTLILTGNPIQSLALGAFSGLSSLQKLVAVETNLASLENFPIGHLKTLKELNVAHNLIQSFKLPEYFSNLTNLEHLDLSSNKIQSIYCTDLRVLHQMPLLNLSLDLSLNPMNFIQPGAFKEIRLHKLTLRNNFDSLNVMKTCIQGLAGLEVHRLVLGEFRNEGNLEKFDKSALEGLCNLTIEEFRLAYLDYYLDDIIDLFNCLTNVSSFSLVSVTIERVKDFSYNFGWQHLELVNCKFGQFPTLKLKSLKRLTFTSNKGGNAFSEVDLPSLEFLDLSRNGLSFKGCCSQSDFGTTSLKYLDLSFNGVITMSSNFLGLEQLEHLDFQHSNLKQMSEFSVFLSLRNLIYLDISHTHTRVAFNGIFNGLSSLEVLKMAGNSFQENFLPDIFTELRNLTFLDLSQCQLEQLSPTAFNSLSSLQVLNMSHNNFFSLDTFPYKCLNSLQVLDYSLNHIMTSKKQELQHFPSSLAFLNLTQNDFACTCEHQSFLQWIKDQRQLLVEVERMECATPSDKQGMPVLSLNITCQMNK

- Kd: 3.72 ± 1.98 µM
B1: Cold-inducible RNA binding protein (CIRP) (natural protein, UniProt Q14011 1-172, looked up)
chain: MASDEGKLFVGGLSFDTNEQSLEQVFSKYGQISEVVVVKDRETQRSRGFGFVTFENIDDAKDAMMAMNGKSVDGRQIRVDQAGKSSDNRSRGYRGGSAGGRGFFRGGRGRGRGFSRGGGDRGYGGNRFESRSGGYGGSRDYYSSRSQSGGYSDRSSGGSYRDSYDSYATHNE
modifications: 15N-labeled (in the NMR titration)
